# According to IntAct's records for PubMed 25531777:
# B1: Rho-related GTP-binding protein Rho6 (Homo sapiens), Q92730 (parent)
# chain: MKERRAPQPVVARCKLVLVGDVQCGKTAMLQVLAKDCYPETYVPTVFENYTACLETEEQRVELSLWDTSGSPYYDNVRPLCYSDSDAVLLCFDISRPETVDSALKKWRTEILDYCPSTRVLLIGCKTDLRTDLSTLMELSHQKQAPISYEQGCAIAKQLGAEIYLEGSAFTSEKSIHSIFRTASMLCLNKPSPLPQKSPVRSLSKRLLHLPSRSELISSTFKKEKAKSCSIM
# Variants of: B1
# Conditions: with PLXNB1, O43157-1
# PLXNB1, O43157-1, sequence (O43157 whole entry): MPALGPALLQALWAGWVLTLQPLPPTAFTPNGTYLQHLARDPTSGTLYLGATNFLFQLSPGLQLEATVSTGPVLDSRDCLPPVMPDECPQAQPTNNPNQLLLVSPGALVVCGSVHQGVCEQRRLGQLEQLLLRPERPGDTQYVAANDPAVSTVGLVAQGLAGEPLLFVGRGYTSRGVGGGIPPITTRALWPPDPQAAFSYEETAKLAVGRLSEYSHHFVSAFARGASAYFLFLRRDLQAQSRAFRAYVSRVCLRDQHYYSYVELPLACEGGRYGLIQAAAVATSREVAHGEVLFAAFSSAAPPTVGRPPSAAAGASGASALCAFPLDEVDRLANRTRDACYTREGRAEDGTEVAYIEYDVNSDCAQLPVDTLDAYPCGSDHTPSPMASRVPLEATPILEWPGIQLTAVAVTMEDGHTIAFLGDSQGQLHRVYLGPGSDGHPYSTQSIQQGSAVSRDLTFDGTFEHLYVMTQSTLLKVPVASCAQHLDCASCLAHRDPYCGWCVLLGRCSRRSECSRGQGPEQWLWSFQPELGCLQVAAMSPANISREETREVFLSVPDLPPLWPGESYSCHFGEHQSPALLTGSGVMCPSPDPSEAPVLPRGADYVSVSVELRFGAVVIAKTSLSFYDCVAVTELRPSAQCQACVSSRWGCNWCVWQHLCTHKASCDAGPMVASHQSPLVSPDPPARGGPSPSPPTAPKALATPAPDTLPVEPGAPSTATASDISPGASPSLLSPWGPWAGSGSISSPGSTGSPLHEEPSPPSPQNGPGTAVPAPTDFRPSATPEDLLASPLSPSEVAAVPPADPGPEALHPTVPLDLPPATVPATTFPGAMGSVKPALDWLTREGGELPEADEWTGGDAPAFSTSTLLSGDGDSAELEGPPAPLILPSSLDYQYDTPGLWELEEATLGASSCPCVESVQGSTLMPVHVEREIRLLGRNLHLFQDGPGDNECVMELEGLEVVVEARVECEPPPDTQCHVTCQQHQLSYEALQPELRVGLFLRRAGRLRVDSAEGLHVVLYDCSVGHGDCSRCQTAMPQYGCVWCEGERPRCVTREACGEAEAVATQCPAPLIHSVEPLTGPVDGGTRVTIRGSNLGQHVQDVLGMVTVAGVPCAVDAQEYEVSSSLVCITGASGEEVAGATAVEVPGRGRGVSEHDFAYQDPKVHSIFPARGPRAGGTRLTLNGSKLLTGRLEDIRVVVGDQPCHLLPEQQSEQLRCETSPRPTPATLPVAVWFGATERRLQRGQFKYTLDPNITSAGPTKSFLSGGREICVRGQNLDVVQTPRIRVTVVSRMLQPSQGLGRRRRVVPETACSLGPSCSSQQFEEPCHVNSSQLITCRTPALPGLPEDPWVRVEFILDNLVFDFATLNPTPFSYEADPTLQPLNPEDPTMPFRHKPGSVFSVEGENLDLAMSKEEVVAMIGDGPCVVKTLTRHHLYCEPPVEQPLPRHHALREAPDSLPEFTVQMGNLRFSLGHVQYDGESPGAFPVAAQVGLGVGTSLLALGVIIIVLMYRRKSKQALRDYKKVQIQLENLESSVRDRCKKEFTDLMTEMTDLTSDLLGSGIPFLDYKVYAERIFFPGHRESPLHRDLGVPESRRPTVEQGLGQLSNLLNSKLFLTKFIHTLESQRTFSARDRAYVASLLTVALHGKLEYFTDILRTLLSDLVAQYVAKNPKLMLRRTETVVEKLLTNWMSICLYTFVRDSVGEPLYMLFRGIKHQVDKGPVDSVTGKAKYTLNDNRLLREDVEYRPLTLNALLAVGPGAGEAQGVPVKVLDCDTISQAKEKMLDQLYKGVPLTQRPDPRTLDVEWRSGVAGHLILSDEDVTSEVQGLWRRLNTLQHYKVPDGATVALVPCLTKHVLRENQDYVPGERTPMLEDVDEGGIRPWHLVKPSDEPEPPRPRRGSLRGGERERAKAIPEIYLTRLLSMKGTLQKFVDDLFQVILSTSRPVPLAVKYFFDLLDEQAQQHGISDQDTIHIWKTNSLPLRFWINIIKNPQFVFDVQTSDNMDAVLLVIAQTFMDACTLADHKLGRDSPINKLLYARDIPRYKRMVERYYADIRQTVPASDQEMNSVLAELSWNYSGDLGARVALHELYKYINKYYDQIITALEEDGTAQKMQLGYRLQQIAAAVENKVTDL
row,effect of a mutation on the interaction,Variant
1,disrupting interaction strength,MKERRAPQPVVARCKLVLVGDVQCGKTAMLQVLAKDCYPETYVPTVFENYTACLETEEQRVELSLWDTSGSPYYDNVRPLCYSDSDAVLLCFDISRPETVDSALKKWRTEILDYCPSTRVLLIGCKTDLRTDLSTLMELSHQKQAPISYEQGCAIAKQLGAEIYLEGSAFTSEKSIHSICRTASMLCLNKPSPLPQKSPVRSLSKRLLHLPSRSELISSTFKKEKAKSCSIM [F180C]
2,disrupting interaction strength,MKERRAPQPVVARCKLVLVGDVQCGKTAMLQVLAKDCYPETYVPTVFENYTACLETEEQRVELSLWDTSRSPYYDNVRPLCYSDSDAVLLCFDISRPETVDSALKKWRTEILDYCPSTRVLLIGCKTDLRTDLSTLMELSHQKQAPISYEQGCAIAKQLGAEIYLEGSAFTSEKSIHSIFRTASMLCLNKPSPLPQKSPVRSLSKRLLHLPSRSELISSTFKKEKAKSCSIM [G70R]
3,disrupting interaction strength,MKERRAPQPVVARCKLVLVGDVQCGKTAMLQVLAKDCYPETYVPTVFENYTACLETEEQRVELSLWDTSGSPYYDNVRPLCYSDSDAVLLCFDISRPDTVDSALKKWRTEILDYCPSTRVLLIGCKTDLRTDLSTLMELSHQKQAPISYEQGCAIAKQLGAEIYLEGSAFTSEKSIHSIFRTASMLCLNKPSPLPQKSPVRSLSKRLLHLPSRSELISSTFKKEKAKSCSIM [E98D]

# Variants of: B1
# Conditions: with PLXNB1, O43157-1
# Remark: another data set of the same source
row,effect of a mutation on the interaction,Variant
1,disrupting interaction strength,MKERRAPQPVVARCKLVLVGDVQCGKTAMLQVLAKDCYPETYVPTVFANYTACLETEEQRVELSLWDTSGSPYYDNVRPLCYSDSDAVLLCFDISRPETVDSALKKWRTEILDYCPSTRVLLIGCKTDLRTDLSTLMELSHQKQAPISYEQGCAIAKQLGAEIYLEGSAFTSEKSIHSIFRTASMLCLNKPSPLPQKSPVRSLSKRLLHLPSRSELISSTFKKEKAKSCSIM [E48A]
2,disrupting interaction strength,MKERRAPQPVVARCKLVLVGDVQCGKTAMLQVLAKDCYPETYVPAVFENYTACLETEEQRVELSLWDTSGSPYYDNVRPLCYSDSDAVLLCFDISRPETVDSALKKWRTEILDYCPSTRVLLIGCKTDLRTDLSTLMELSHQKQAPISYEQGCAIAKQLGAEIYLEGSAFTSEKSIHSIFRTASMLCLNKPSPLPQKSPVRSLSKRLLHLPSRSELISSTFKKEKAKSCSIM [T45A]
